Assay results as given in US20130217145A1 (published 2013).

Columns and labels:
Assay in all cases: FCS competition against 2 nM Alexa488-PIVKAII (13-27) premixed with 10 nM mAb 3C10
[1] = target: T1, Gla domain Factor VII sequence 13 peptide
T1 construct: Homologous series peptide; also called PIVKAII Gla domain (13-27) analog, Factor VII
T1 peptide: LERECKEEQCSFEEA
Procedure: (§1) FCS measurements were performed on each sample after overnight incubation.

[2] = target: T2, Gla domain Protein Z sequence 16 peptide
T2 construct: Homologous series peptide; also called PIVKAII Gla domain (13-27) analog, Protein Z
T2 peptide: LEKECYEEICVYEEA
Procedure: as §1

[3] = target: T3, Gla domain Protein S sequence 15 peptide
T3 construct: Homologous series peptide; also called PIVKAII Gla domain (13-27) analog, Protein S
T3 peptide: LERECIEELCNKEEA
Procedure: as §1

[4] = target: T4, Gla domain Factor X sequence 12 peptide
T4 construct: Homologous series peptide; also called PIVKAII Gla domain (13-27) analog, Factor X
T4 peptide: LERECMEETCSYEEA
Procedure: as §1

[5] = target: T5, Gla domain Protein C sequence 14 peptide
T5 construct: Homologous series peptide; also called PIVKAII Gla domain (13-27) analog, Protein C
T5 peptide: LERECIEEICDFEEA
Procedure: as §1

[6] = target: T6, Gla domain Factor IX sequence 11 peptide
T6 construct: Homologous series peptide; also called PIVKAII Gla domain (13-27) analog, Factor IX
T6 peptide: LERECMEEKCSFEEA
Procedure: as §1

Measured: binding result

B1: Anti-PIVKA-II monoclonal antibody 3C10 (antibody, V domains shown)
VH: EVQLVESGGDLVKPGGSLKLSCAASGFTFSSYGMSWVRQTPDKRLEWVATISRGGSSTYYPDSVKGRFTISRDNAKNNLYLQMSSLKSEDTAMYYCASLNYGNFFDYWGQGTTLTVSS
VL: DVVMTQTPLSLPVSLGDQASISCRSSQSLVHSNGNTYLHWYLQKPGQSPKLLIYKVSNRFSGVPDRFSGSGSGTDFTLKISRVEAEDLGVYFCSQNRHVPPTFGGGTKLEIKR
notes: Mouse hybridoma antibody from a GANP transgenic C57BL/6 mouse; For the Kd measurement the antibody carried Black Hole Quencher (I.R. 2.3); also called mAb 3C10; clone 3C10
no binding: all assays above
